# B1: G2DT (PT7; ΔTP-PT7) (Glycine max) (protein)
# chain: YKKKTQIECNILRSQQSSLNHHYKRIEGGATYQDCDKKYVVKAIPEPTFDSEPCASNPENVVDSAKKILDVFYHFCYPYSMIAIILCAISSSLLAVEKPSDISSSFLIGVLQALVPHLFVAVFANVVNQVFDYEIDKINKPYLPLASGQLSFTTAVFIAASLLIMSFWLSLVIGSWPLIWNVVLTSSVWNVYSINVPLLRWKRHPLLATICTISVWAFILPITFFLHMQTFVLKRPIVFPRSLIFYVVFMIFYSLGMALSKDISDVKGDKAYGIDTLAIRLGQKWVFWICIILFEMAFGVALLAGATSSYLWIKIVTGLGHAILASILLYQAKSIYLSNKVSTISFYMLIWKLLYAAYFLMALIR
# Substrate: Oc1ccc2c(c1)OC[C@@]1(O)c3ccc(O)cc3O[C@@H]21
# Test: HPLC prenyltransferase assay, recombinant yeast microsomes, Lineweaver-Burk
# Assay type: biochemical, Glycine max
# Conditions: 400 µM DMAPP, divalent cation required (Mg2+ preferred), 30 °C, 15 min
protein,measurement,value
B1,Km,183 µM

# Source: PMC5159607
